4 molecules from patent US20260042834A1, “ANTI-CORTICOTROPIN-RELEASING HORMONE ANTIBODIES AND POLYCYSTIC OVARY SYNDROME” (HBM ALPHA THERAPEUTICS, INC., priority 2022, published 2026) can be followed below.

One assay has as its system mouse CRHR2. Briefly: CRH-induced luciferase reporter blocking assay, CHO-CRE-mCRHR2 cells. In kind it is cell-based. On the procedure: To create CHO-CRE-hCRHR1, -hCRHR2, -mCRHR1, and -mCRHR2 reporter cell lines, pcDNA3.1-hCRHR1, -hCRHR2, -mCRHR1, and -mCRHR2 were introduced into CHO-CRE cells established above by electroporation as described above. Selection antibiotics hygromycin at 500 μg/ml and G418 at 1,000 μg/ml were employed. Individual established stable cell lines were characterized by both CRH and forskolin stimulation. […]
(§1) Cells were digested by trypsin-EDTA (Life technologies, Cat #:12604-013), centrifuged at 1,000 rpm for 5 min, resuspended in growth medium, counted using a cell counter, seeded at a concentration of 5,000 cells per 100 μl in 96-well flat plates, and incubated overnight. 50 μl of 4× serially diluted antibodies was added (8 points, 1/4 diluted by growth medium) to plates containing CHO-CRE-hCRHR1 cells, and 50 μl of 4×CRH (4× is 2 nM, final is 0.5 nM) was added. Similarly, 4×CRH (4× is 0.4 nM, final is 0.1 nM) was added to CHO-CRE-hCRHR2 cells and CHO-CRE-mCRHR1 cells, and 4×CRH (4× is 20 nM, final is 5 nM) was added to CHO-CRE-mCRHR2 cells. Next, plates were incubated 4-6 hours at 37° C. in a CO2 incubator. 60 μl of culture medium was removed, to which was added 60 μl of Bio-Glo luciferase, followed by incubation for 10 min at RT. Plates were read in a luciferase plate reader (EnVision, PerkinElmer).

The target of a further assay is T1, biotinylated CRH (Homo sapiens, UniProt P06850).
T1 construct: purchased GL Biochem 784751
T1 sequence (P06850 154-194): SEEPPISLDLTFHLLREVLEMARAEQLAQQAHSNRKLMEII
The assay can be described thus: Affinity determination with Octet. The format is binding. Here is the method: Octet® Red 96e was used for affinity measurement. Octet® running buffer was prepared by diluting kinetics buffer 10× (Fortebio, Cat #18-1105) in PBS according to the manufacturer's instructions. Two columns of SA sensors (Fortebio, Cat #18-5019) were hydrated in running buffer for 10 mins, one for ligand capturing and the other for reference. Antibodies were 2-fold diluted and added into a 96-well plate. 30 nM biotinylated CRH (GL Biochem, Cat #784751) was captured by the first column of SA sensors for 20 seconds, while reference sensors were dipped into buffer wells. After a 60-second baseline step, sensors were dipped into analyte and buffer wells successively, with the association and dissociation time of 180 seconds and 800 seconds, respectively. Sensors were regenerated in glycine pH1.5 (Cytiva, Cat #BR-1003-54) before the next cycle. […] Signals of reference wells and reference sensors were subtracted by selecting “Double reference” before data fitting.
On the technique in general: BLI is a label-free optical method that tracks binding on a fibre tip over time.

Another assay concerns human CRHR2. Briefly: CRH-induced luciferase reporter blocking assay, CHO-CRE-hCRHR2 cells. The format is cell-based. On the procedure:
To create CHO-CRE-hCRHR1, -hCRHR2, -mCRHR1, and -mCRHR2 reporter cell lines, pcDNA3.1-hCRHR1, -hCRHR2, -mCRHR1, and -mCRHR2 were introduced into CHO-CRE cells established above by electroporation as described above. Selection antibiotics hygromycin at 500 μg/ml and G418 at 1,000 μg/ml were employed. Individual established stable cell lines were characterized by both CRH and forskolin stimulation.
Activated GPCR proteins increase production of the intracellular cAMP. CHO-CRE-human CRHR1 stable clone 11 was generated by introduction of pcDNA3.1-human CRHR1 under the selection of G418 and hygromycin. Human CRHR1 expression in CHO-CRE-hCRHR1 Clone 11 was confirmed by flow cytometry (data not shown). To further validate that the cell line was functional, CHO-CRE-hCRHR1 Clone 11 cells were treated with forskolin and CRH peptide. […] Subsequently CHO-CRE-hCRHR2 Clone 32, -mCRHR1 Clone 22, and -mCRHR2 Clone 8 cell lines were established using similar methodology and validated with CRH treatment (data not shown).
Blocking CRHR1 by small molecules or neutralization of CRH peptide can reduce luciferase expression if the CRH-CRHR1 system works in CHO-CRE-hCRHR1 cells. Antalarmin, a small molecule CRHR1 antagonist, blocked CRH-mediated luciferase expression in CHO-CRE-hCRHR1 Clone 11 (data not shown). Furthermore, sheep anti-CRH polyclonal antibody reduced CRH-mediated luciferase expression in these cells (data not shown). Likewise, sheep anti-CRH polyclonal antibody blocked CRH-mediated luciferase expression in CHO-CRE-hCRHR2, CHO-CRE-mCRHR1, and CHO-CRE-mCRHR2 cells (data not shown).
as §1
Background: A reporter such as luciferase makes a cellular process visible.

Assay [1] deals with T2, N-terminal region plus central region, central region only, central region plus C-terminal region of CRH (Homo sapiens, UniProt P06850).
T2 construct: N-terminal region plus the central region (CT biotin), the central region only (NT biotin or CT biotin)
The assay can be described thus: ELISA determining the binding region of CRH. Particulars: dash = no binding. On the procedure: Streptavidin (Thermo, Cat: 21125) was diluted in PBS to a concentration of 2 μg/ml. 100 μl of diluted streptavidin was added per well to ELISA microplates, and the plates were incubated overnight at 4° C. Plates were blocked with ELISA blocking solution (containing 2% w/v BSA, 0.05% (v/v) Tween-20, pH 7.4 PBS buffer) at 37° C. for 1 hour, and then incubated with 1 μg/mL N-terminal region plus the central region (CT biotin), the central region only (NT biotin or CT biotin), or the central region plus C-terminal region (NT biotin) of CRH for 1 hour at 37° C. Plates were then washed and incubated with diluted anti-CRH antibody (Ab) at 15 μg/ml (100 nM, 10 diluted, 8 points) for 1 hour at 37° C. Subsequently, plates were washed and incubated with HRP-conjugated goat anti-human IgG (H+L) antibody (Jackson, Cat: 109-035-088) at 37° C. for 1 hour. 100 μL of 3,3′,5,5′-tetramethylbenzidine (TMB) substrate (Biopanda, Cat: TMB-S-003) was added, and the plates were incubated at room temperature for 15 minutes. 100 μL of ELISA stopping solution (Solarbio, Cat #: C1058) was added to terminate the reaction, and the optical density at 450 nm (OD450 nm) was determined by an ELISA plate reader (Molecular Devices, Spectra max 384 plus).
(An ELISA detects its analyte on a solid surface through an enzyme-linked reagent.)

[2] abbreviates: CHO-CRE-hCRHR2 cells, 0.1 nM CRH.

Read-outs that look alike come from different tables or passages of the source. Some results are limits rather than exact numbers.

B1: PR302334-10: humanized variant of Series 9 mAb PR302334; VH SEQ ID NO: 273, VL SEQ ID NO: 328 (antibody, V domains shown)
VH: EVQLVESGGGLVQPGGSLRLSCAASGFTFSTYAMSWVRQAPGKGLEWVASIRSGGTTYYPDSVKGRFTISRDNSKNTLYLQMNSLRAEDTAVYYCTRGIDWGQGTTVTVSS
VL: DIVMTQSPDSLAVSLGERATINCKASQSVNNDVAWYQQKPGQPPRLLIYYASNRYTGVPDRFSGSGSGTDFTLTISSLQAEDLAVYFCQQDYSSWTFGGGTKVEIK
modifications: PR302334-10 VH, PR302334-11 VH, PR302334-12 VH, PR302334-14 VH,PR302334-7 VH, PR302334-8 VH, PR302334-9 VH; PR302334-10 VL, PR302334-24 VL, PR302334-26 VL, PR302334-4 VL
The IC50 is the concentration that inhibits the measured activity by half. A higher IC50 goes with weaker potency. By kon is commonly meant a measure of how fast the partners come together. Lower therefore signals slow association. For B1, the half-maximal inhibitory concentration (IC50) was found to be 1.98 nM with mouse CRHR2 (CHO-CRE-mCRHR2 cells, 5 nM CRH) and 2.08 nM in the assay with human CRHR2 (setting [2]). The “kdis” value with biotinylated CRH is <1e-07 s⁻¹. Moreover, the “kon” value in the assay with biotinylated CRH was 6840 M⁻¹ s⁻¹.

B2: PR302334-27: humanized variant of Series 9 mAb PR302334; VH SEQ ID NO: 277, VL SEQ ID NO: 330 (antibody, V domains shown)
VH: EVQLVESGGGLVQPGGSLRLSCAASGFTFSTYAMSWVRQAPGKGLEWVASIRSGGTTYYPDSVKGRFTISRDNSKNSLYLQMNSLRAEDTAVYYCTRGIDWGQGTTVTVSS
VL: DIQMTQSSLSASVSLGDRVTITCKASQSVNNDVAWYQQKPGKAPRLLIYYASNRYTGVPSRFSGSGSGTDFTFTISSLQPEDLATYFCQQDYSSWTFGGGTKVEIK
modifications: PR302334-18 VH, PR302334-26 VH, PR302334-27 VH; PR302334-12 VL, PR302334-25 VL, PR302334-27 VL, PR302334-6 VL
Molecule B2 returned an IC50 with mouse CRHR2 (CHO-CRE-mCRHR2 cells, 5 nM CRH) of 1.84 nM. In addition, in the assay with biotinylated CRH, the “kdis” value is <1e-07 s⁻¹ and the on-rate (kon) stood at 302000 M⁻¹ s⁻¹. The IC50 in the assay with human CRHR2 (setting [2]) turned out to be 1.65 nM.

B3: PR302309-18: humanized variant of Series 7 mAb PR302309; VH SEQ ID NO: 263, VL SEQ ID NO: 318 (antibody, V domains shown)
VH: QVQLVQSGAEVKKPGASVKVSCKASGYTFTNYGMNWVRQAPGQRLEWMGWINTYTGEPIYTDDFKGRVTITRDTSASTAYMELSSLRSEDTAVYYCARSTMITTGGVFAYWGQGTLVTVSS
VL: DVVMTQSPLSLPVTLGQPASISCRSSQTIVHSDGNTYLEWYQQRPGQSPRLLIYKVSNRFSGVPDRFSGSGSGTDFTLKISRVEAEDLGVYYCFQGSHVPWTFGGGTKVEIK
modifications: PR302309-15 VH, PR302309-18 VH; PR302309-17 VL, PR302309-18 VL, PR302309-19 VL, PR302309-2 VL,PR302309-8 VL
A word on the EC50: it is the concentration needed to bring the measured effect to its halfway point. As for B3, the EC50 in assay [1] (central plus C-terminal region CRH peptide, NT-biotin (SEQ ID NO: 483), read-out: ELISA EC50 C-Ter-CRH (NT-Bion)) is > 100 nM; in assay [1] (central region CRH peptide, CT-biotin (SEQ ID NO: 485), read-out: ELISA EC50 Central-CRH (CT-Bion)), > 100 nM; in assay [1] (central region CRH peptide, NT-biotin (SEQ ID NO: 484), read-out: ELISA EC50 Central-CRH (NT-Bion)), > 100 nM. Further, in the assay with biotinylated CRH, the “kdis” value is <1e-07 s⁻¹. For the same molecule, the “kon” value with biotinylated CRH turned out to be 126000 M⁻¹ s⁻¹.

B4: PR302341: Series 10 anti-CRH mAb from immunized wildtype mice; VH SEQ ID NO: 280, VL SEQ ID NO: 339 (antibody, V domains shown)
VH: EVQLQQSGPELVKPGASVKMSCKASGYTFTDYFMKWVKQSHGESLEWIGVINPNNGDIFYNQKFKGKATLTVDKSSSTAFMQLNSLTSEDSAVYSCARGTDRALFAYWGQGTLVAVSA
VL: DVLMTQTPLSLPVSLGDQASISCRSGQSIVHSDGNTYLEWYLQRPGQSPRLLIYKVSNRFSGVPDRFSGSGSGTDFTLKISRVGAEDLGIYYCFQGSHIPWTFGGGTKLEVK
modifications: PR302341-1 VH, PR302341-2 VH, PR302341-3 VH, PR302341-4 VH,PR302341-5 VH, PR302341-6 VH, PR302341 VH; PR302341-13 VL, PR302341-14 VL, PR302341-15 VL, PR302341-16 VL,PR302341-17 VL, PR302341-18 VL, PR302341 VL
Consider B4, for which the half-inhibitory concentration (IC50) with mouse CRHR2 (CHO-CRE-mCRHR2 cells, 5 nM CRH) was 0.849 nM; in the assay with mouse CRHR2 (Table 9, mCrhr2) it was 2.41 nM; in the assay on human CRHR2 (setting [2]), 0.244 nM; in the assay on human CRHR2 (Table 9, hCRHR2), ~2.18 nM. Besides, the “kdis” value in the assay with biotinylated CRH was 2.18e-07 s⁻¹. Moreover, the “kon” value with biotinylated CRH is 1.01e+06 M⁻¹ s⁻¹.
